First the molecules themselves.
B1: S77F (designed binder)
chain: SMEEEVEKAAKEYEKKKKEAIEKHLEKLKAKDKEAAERFLKELEEAAKEYAKDEAKTMSEEEAKRRAKKYKEKVLLFELSEEEQKEIKEAEEKLVRTILKYVEEAAK
B2: R96S (designed binder)
chain: B1 chain with F77S, R96S
B3: E44Q (designed binder)
chain: B1 chain with E44Q, F77S
B4: K18F (designed binder)
chain: B1 chain with K18F, F77S
B5: L94T (designed binder)
chain: B1 chain with F77S, L94T
B6: A9W (designed binder)
chain: B1 chain with A9W, F77S
B7: R38K (designed binder)
chain: B1 chain with R38K, F77S
B8: A30L (designed binder)
chain: B1 chain with A30L, F77S
B9: K23H (designed binder)
chain: B1 chain with K23H, F77S
B10: A105F (designed binder)
chain: B1 chain with F77S, A105F
B11: M2C (designed binder)
chain: B1 chain with M2C, F77S
B12: V95Y (designed binder)
chain: B1 chain with F77S, V95Y
B13: E45P (designed binder)
chain: B1 chain with E45P, F77S
B14: L94S (designed binder)
chain: B1 chain with F77S, L94S
B15: A67N (designed binder)
chain: B1 chain with A67N, F77S
B16: K71P (designed binder)
chain: B1 chain with K71P, F77S
B17: K56C (designed binder)
chain: B1 chain with K56C, F77S
B18: E89M (designed binder)
chain: B1 chain with F77S, E89M
B19: E49C (designed binder)
chain: B1 chain with E49C, F77S
B20: R65S (designed binder)
chain: B1 chain with R65S, F77S
B21: E86R (designed binder)
chain: B1 chain with F77S, E86R
B22: E42D (designed binder)
chain: B1 chain with E42D, F77S
B23: E89P (designed binder)
chain: B1 chain with F77S, E89P
B24: Y13E (designed binder)
chain: B1 chain with Y13E, F77S
B25: A51F (designed binder)
chain: B1 chain with A51F, F77S
B26: E45F (designed binder)
chain: B1 chain with E45F, F77S
B27: R96T (designed binder)
chain: B1 chain with F77S, R96T
B28: E81Y (designed binder)
chain: B1 chain with F77S, E81Y
B29: Y70C (designed binder)
chain: B1 chain with Y70C, F77S
B30: A9N (designed binder)
chain: B1 chain with A9N, F77S
B31: Y13W (designed binder)
chain: B1 chain with Y13W, F77S
B32: A20T (designed binder)
chain: B1 chain with A20T, F77S
B33: S59L (designed binder)
chain: B1 chain with S59L, F77S
B34: K31T (designed binder)
chain: B1 chain with K31T, F77S
B35: E82C (designed binder)
chain: B1 chain with F77S, E82C
B36: K52S (designed binder)
chain: B1 chain with K52S, F77S
B37: D32E (designed binder)
chain: B1 chain with D32E, F77S
B38: K31H (designed binder)
chain: B1 chain with K31H, F77S
B39: T57L (designed binder)
chain: B1 chain with T57L, F77S
B40: A35F (designed binder)
chain: B1 chain with A35F, F77S
B41: E49W (designed binder)
chain: B1 chain with E49W, F77S
B42: K73M (designed binder)
chain: B1 chain with K73M, F77S
B43: M2T (designed binder)
chain: B1 chain with M2T, F77S
B44: L28A (designed binder)
chain: B1 chain with L28A, F77S
B45: A67F (designed binder)
chain: B1 chain with A67F, F77S
B46: E81C (designed binder)
chain: B1 chain with F77S, E81C
B47: V95R (designed binder)
chain: B1 chain with F77S, V95R
B48: A90G (designed binder)
chain: B1 chain with F77S, A90G
B49: M58R (designed binder)
chain: B1 chain with M58R, F77S
B50: S80Y (designed binder)
chain: B1 chain with F77S, S80Y
B51: K18G (designed binder)
chain: B1 chain with K18G, F77S
B52: E103R (designed binder)
chain: B1 chain with F77S, E103R
B53: M58Q (designed binder)
chain: B1 chain with M58Q, F77S
B54: E62A (designed binder)
chain: B1 chain with E62A, F77S
B55: E86S (designed binder)
chain: B1 chain with F77S, E86S

Consider 55 molecules from article PMC12416549 (2024).

Numbering of substitutions follows the chain as printed. Names may count otherwise.

In this assay the target is T1, TNFR1 (Homo sapiens, UniProt P19438).
T1 chain: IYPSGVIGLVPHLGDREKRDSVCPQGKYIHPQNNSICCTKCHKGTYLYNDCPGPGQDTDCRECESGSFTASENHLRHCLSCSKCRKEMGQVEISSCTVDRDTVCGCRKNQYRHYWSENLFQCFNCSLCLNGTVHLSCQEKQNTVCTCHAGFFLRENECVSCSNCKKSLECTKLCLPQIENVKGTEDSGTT
In words: yeast display SC50.
For B1, the “apparent Kd (screen)” value turned out to be 1.05 nM. As for B2, the figure is 2.48 nM; as for B3, 0.653 nM. In the case of B4, the “apparent Kd (screen)” value worked out at 0.869 nM.

In the case of B5, the “apparent Kd (screen)” value was 0.446 nM. Take B6: the “apparent Kd (screen)” value amounted to 3 nM. Regarding B7, the “apparent Kd (screen)” value was found to be 10.4 nM. B8: the “apparent Kd (screen)” value came to 0.593 nM.

B9: the “apparent Kd (screen)” value was 0.49 nM. Take B10: the “apparent Kd (screen)” value came out at 3 nM.

Take B11: the “apparent Kd (screen)” value was 2.73 nM. As for B12, the figure is 3 nM; as for B13, 7.78 nM. As to B14, the “apparent Kd (screen)” value is 12.5 nM. On to B15, for which the “apparent Kd (screen)” value came out at 7.07 nM. On to B16, for which the “apparent Kd (screen)” value worked out at 11.4 nM. As to B17, the “apparent Kd (screen)” value was found to be 10.4 nM. Take B18: the “apparent Kd (screen)” value stood at 1.05 nM. Turning to B19, the “apparent Kd (screen)” value amounted to 13.8 nM. In the case of B20, the “apparent Kd (screen)” value was found to be 1.69 nM. As to B21, the “apparent Kd (screen)” value came to 0.593 nM. As for B22, the “apparent Kd (screen)” value was 2.73 nM. In the case of B23, the “apparent Kd (screen)” value was determined as 10.4 nM. As for B24, the figure is 1.54 nM; as for B25, 0.593 nM. Consider B26, for which the “apparent Kd (screen)” value was 4.39 nM. For B27, the “apparent Kd (screen)” value came to 1.54 nM. Consider B28, for which the “apparent Kd (screen)” value was found to be 0.653 nM. For the molecule B29, the “apparent Kd (screen)” value amounted to 7.78 nM.

On to B30, for which the “apparent Kd (screen)” value came out at 0.869 nM.

As for B31, the “apparent Kd (screen)” value amounted to 2.73 nM. Take B32: the “apparent Kd (screen)” value is 0.718 nM. In the case of B33, the “apparent Kd (screen)” value was found to be 1.05 nM. To B34 belongs 0.593 nM; to B35, 1.86 nM.

On to B36, for which the “apparent Kd (screen)” value came out at 0.446 nM. Consider B37, for which the “apparent Kd (screen)” value was 0.956 nM. To B38 belongs 0.446 nM; to B39, 0.107 nM.

As to B40, the “apparent Kd (screen)” value was determined as 0.956 nM.

As to B41, the “apparent Kd (screen)” value was 16.7 nM. For B42, the “apparent Kd (screen)” value came out at 0.869 nM.

For B43, the “apparent Kd (screen)” value is 0.446 nM.

Turning to B44, the “apparent Kd (screen)” value was found to be 0.718 nM.

On to B45, for which the “apparent Kd (screen)” value came to 18.3 nM. To B46 belongs 0.869 nM; to B47, 7.78 nM. To B48 belongs 0.49 nM. In the case of B49, the “apparent Kd (screen)” value amounted to 12.5 nM.

With B50, the “apparent Kd (screen)” value was 2.05 nM. Regarding B51, the “apparent Kd (screen)” value was 0.653 nM. As for B52, the “apparent Kd (screen)” value was 0.539 nM. As for B53, the “apparent Kd (screen)” value is 11.4 nM. To B54 belongs 0.446 nM. To B55 belongs 0.718 nM.
